Reference: patent US20090136526A1 (Seagen, published 2009)

T1: CD19 on CD19-positive tumor cell lines (human, UniProt P15391 20-556)
T1 sequence (looked up): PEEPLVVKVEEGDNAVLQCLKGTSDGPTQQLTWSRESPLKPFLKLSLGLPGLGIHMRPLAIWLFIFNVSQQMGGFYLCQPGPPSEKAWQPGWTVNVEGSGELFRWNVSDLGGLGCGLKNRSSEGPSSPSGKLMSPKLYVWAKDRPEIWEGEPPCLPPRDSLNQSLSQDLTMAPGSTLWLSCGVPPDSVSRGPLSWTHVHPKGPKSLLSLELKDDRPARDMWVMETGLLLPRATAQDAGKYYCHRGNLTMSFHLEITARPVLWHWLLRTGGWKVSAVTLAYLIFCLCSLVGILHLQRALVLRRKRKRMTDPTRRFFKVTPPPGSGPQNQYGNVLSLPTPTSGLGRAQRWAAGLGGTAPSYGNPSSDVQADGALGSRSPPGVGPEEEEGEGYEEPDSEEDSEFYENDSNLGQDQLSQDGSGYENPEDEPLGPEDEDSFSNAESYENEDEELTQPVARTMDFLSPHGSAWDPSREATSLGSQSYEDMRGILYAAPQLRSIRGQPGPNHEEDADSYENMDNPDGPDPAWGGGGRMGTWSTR


What was measured:
[1] = target: T1, CD19 on CD19-positive tumor cell lines; test: cell-based or functional assay
[2] = target: CD19 on CD19-positive tumor cell lines (human) (UniProt P15391); test: cell-based or functional assay

Row | internalization kinetics by FACS, CD21 low Ramos cells [1] | Molecule | IC50 (ng/mL) of anti-CD19 antibody linked with 2°-ADC, cell viability (resazurin, 96 h), CA46 cells [1] | IC50 (ng/mL) of anti-CD19 antibody linked with 2°-ADC, cell viability (resazurin, 96 h), HS Sultan cells [1] | IC50 (ng/mL) of anti-CD19 antibody linked with 2°-ADC, cell viability (resazurin, 96 h), MC 116 cells [1] | IC50 (ng/mL) of anti-CD19 antibody linked with 2°-ADC, cell viability (resazurin, 96 h), Ramos cells [1] | IC50 (ng/mL) of anti-CD19 antibody linked with 2°-ADC, cell viability (resazurin, 96 h), Toledo cells [1] | IC50 (ng/mL) of anti-CD19 antibody linked with 2°-ADC, cell viability (resazurin, 96 h), HT cells [1] | IC50 (ng/mL) of anti-CD19 antibody linked with 2°-ADC, cell viability (resazurin, 96 h), CA46 cells [2] | IC50 (ng/mL) of anti-CD19 antibody linked with 2°-ADC, cell viability (resazurin, 96 h), HS Sultan cells [2] | IC50 (ng/mL) of anti-CD19 antibody linked with 2°-ADC, cell viability (resazurin, 96 h), MC 116 cells [2] | IC50 (ng/mL) of anti-CD19 antibody linked with 2°-ADC, cell viability (resazurin, 96 h), Ramos cells [2] | IC50 (ng/mL) of anti-CD19 antibody linked with 2°-ADC, cell viability (resazurin, 96 h), Toledo cells [2]
1 |  | B-C3 (antibody) | 17 ng/mL | 234 ng/mL | 195 ng/mL | 13 ng/mL | 359 ng/mL |  |  |  |  |  | 
2 |  | HIB19 (antibody) | 1 ng/mL | 97 ng/mL | 188 ng/mL | 1 ng/mL | 1000 ng/mL | 1000 ng/mL |  |  |  |  | 
3 |  | LT19 (antibody) | 4 ng/mL | 112 ng/mL | 192 ng/mL | 1 ng/mL | 584 ng/mL | 111 ng/mL |  |  |  |  | 
4 | 50% | hBU12 (antibody) |  |  |  |  |  |  |  |  |  |  | 
5 | 50% | hBU12-vcMMAE (antibody) |  |  |  |  |  |  |  |  |  |  | 
6 |  | SJ25-C1 (antibody, from another filing, V domains shown) VH: EVKLQQSGAELVRPGSSVKISCKASGYAFSSYWMNWVKQRPGQGLEWIGQIYPGDGDTNYNGKFKGQATLTADKSSSTAYMQLSGLTSEDSAVYFCARKTISSVVDFYFDYWGQGTTVTVSS VL: DIELTQSPKFMSTSVGDRVSVTCKASQNVGTNVAWYQQKPGQSPKPLIYSATYRNSGVPDRFTGSGSGTDFTLTITNVQSKDLADYFCQQYNRYPYTSGGGTKLEI |  |  |  |  |  |  | 4 ng/mL | 150 ng/mL | 200 ng/mL | 3 ng/mL | 512 ng/mL
7 |  | cBU12 (antibody, V domains shown) VH: QVTLKESGPGILQPSQTLSLTCSFSGFSLSTSGMGVGWIRQPSGKGLEWLAHIWWDDDKRYNPALKSRLTISKDTSSNQVFLKIASVDTADTAAYYCARMELWSYYFDYWGQGTTLTVSS VL: ENVLTQSPAIMSASPGEKVTMTCSASSSVSYMHWYQQKSSTSPKLWIYDTSKLASGVPGRFSGSGSGNSHFLTISSMEAEDVATYYCFQGSVYPFTFGSGTKLEIKR | 7 ng/mL | 100 ng/mL | 186 ng/mL | 5 ng/mL | ~1000 ng/mL | 238 ng/mL |  |  |  |  | 
